From patent publication US20100062512A1 (CRUCELL HOLLAND B V, published 2010) come the findings set out here.

In the assay the target is T1, Factor XI from DEAE treated human plasma (human, UniProt P03951 19-625).
T1 construct: mature; Plasma-derived, not purified when it was loaded on the Protein G column; also called FXI
Description: Protein G column chromatography of 25 ml DEAE treated human plasma. How it is done:
Therefore, 25 ml DEAE treated human plasma was subjected to a 1 ml Protein G column, to which IgG's selectively bound while more than 99% of the loaded Factor XI appeared in the flowthrough. Thus, a biological fluid containing Factor XI and depleted of IgG's was obtained.

T1 sequence (P03951 19-625 limits assumed): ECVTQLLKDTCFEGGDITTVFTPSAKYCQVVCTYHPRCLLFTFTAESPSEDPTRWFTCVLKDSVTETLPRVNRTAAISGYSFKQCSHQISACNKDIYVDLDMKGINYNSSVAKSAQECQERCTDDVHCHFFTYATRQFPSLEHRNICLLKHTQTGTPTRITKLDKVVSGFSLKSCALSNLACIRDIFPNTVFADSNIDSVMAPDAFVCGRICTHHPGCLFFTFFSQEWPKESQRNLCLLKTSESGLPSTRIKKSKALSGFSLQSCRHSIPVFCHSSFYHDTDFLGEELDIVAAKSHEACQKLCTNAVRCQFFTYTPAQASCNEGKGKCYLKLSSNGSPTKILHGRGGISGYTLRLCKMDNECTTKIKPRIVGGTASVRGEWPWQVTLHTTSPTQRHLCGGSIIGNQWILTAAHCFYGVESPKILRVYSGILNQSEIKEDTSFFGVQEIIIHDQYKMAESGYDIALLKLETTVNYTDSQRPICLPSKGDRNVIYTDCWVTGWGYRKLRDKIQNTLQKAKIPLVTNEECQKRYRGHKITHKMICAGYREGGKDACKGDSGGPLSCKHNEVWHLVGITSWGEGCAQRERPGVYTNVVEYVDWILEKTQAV

B1: Protein G (1 ml Protein G column) (other, UniProt P19909 303-497, looked up)
chain: TYKLILNGKTLKGETTTEAVDAATAEKVFKQYANDNGVDGEWTYDDATKTFTVTEKPEVIDASELTPAVTTYKLVINGKTLKGETTTEAVDAATAEKVFKQYANDNGVDGEWTYDDATKTFTVTEKPEVIDASELTPAVTTYKLVINGKTLKGETTTKAVDAETAEKAFKQYANDNGVDGVWTYDDATKTFTVTE
notes: Immobilised Protein G
With B1, the binding result was “no binding (tested: more than 99% in flowthrough)”.
